Literature values, collected in PMC6964287.

Legend:
Asp85 = Asp85 (UniProt position 98, WARYADWLFTT); assay: NMR; details: membrane-associated pHLIP; protonation linked to bilayer insertion
Asp96 = Asp96 (UniProt position 109, PLLLLDLALLV); assay: NMR; details: membrane-associated pHLIP; protonation linked to bilayer insertion

For “pHLIP (pH-Low Insertion Peptide), peptide derived from bacteriorhodopsin helix C (Halobacterium salinarum)”, the pKa (Asp85) is listed as 5.82 ± 0.08 and the pKa (Asp96) is listed as 6.08 ± 0.08.
